According to patent publication US20250320291A1:

Target: biotinylated CD19 (UniProt P15391)
Experiment: yeast surface display of the scFv, flow cytometry titration of biotinylated CD19, 1:1 equilibrium binding fit, mean±SD of 3 trials

UniProt P15391, sequence (P15391 20-291 limits assumed): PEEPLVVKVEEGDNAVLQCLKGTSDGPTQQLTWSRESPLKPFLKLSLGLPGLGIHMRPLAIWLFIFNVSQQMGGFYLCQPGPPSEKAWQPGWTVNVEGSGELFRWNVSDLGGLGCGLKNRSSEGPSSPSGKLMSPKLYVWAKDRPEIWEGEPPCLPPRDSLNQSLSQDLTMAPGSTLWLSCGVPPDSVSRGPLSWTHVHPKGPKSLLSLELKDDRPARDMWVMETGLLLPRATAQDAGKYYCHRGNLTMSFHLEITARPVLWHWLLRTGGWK

Kd: 4.8 nM
Substance: FMC63 parental murine anti-CD19 scFv
